From PMC5868845

Biological target: 4F2hc (UniProt P08195)
Assay: co-IP from transfected 293FT, western blot
Details: reference: Flag-NT wild type

| Substance | binding against the reference (sites S233) | binding against the reference (sites S237) |
| --- | --- | --- |
| Girdin NT domain, 1-256 (from UniProt Q3V6T2) Flag-NT S233A | lost |  |
| Girdin NT domain, 1-256 (from UniProt Q3V6T2) Flag-NT S237A |  | lost |
